Measured values from the Immune Epitope Database (IEDB).

What was measured:
[1] = target: HLA-B*15:01; assay: IEDB peptide-MHC binding, purified MHC/direct/fluorescence; filed as Kd, often an IC50 or EC50 that approximates it; ≥ and ≤ were set here for values at or beyond the usual limits of such assays
[2] = target: HLA-B*35:01; assay: IEDB peptide-MHC binding, purified MHC/competitive/fluorescence; filed as Kd, often an IC50 or EC50 that approximates it; ≥ and ≤ were set here for values at or beyond the usual limits of such assays
[3] = target: HLA-A*03:01; assay: as above
[4] = target: HLA-A*26:01; assay: as above
[5] = target: HLA-A*02:01; assay: IEDB peptide-MHC binding, purified MHC/direct/fluorescence; filed as Kd, often an IC50 or EC50 that approximates it; ≥ and ≤ were set here for values at or beyond the usual limits of such assays
[6] = target: HLA-B*46:01; assay: as above
[7] = target: HLA-B*44:02; assay: as above; conditions: source organism: Vibrio parahaemolyticus
[8] = target: HLA-B*40:01; assay: as above
[9] = target: HLA-B*07:02; assay: as above
[10] = target: HLA-A*24:02; assay: as above; conditions: source organism: Vibrio parahaemolyticus
[11] = target: HLA-B*58:01; assay: as above
[12] = target: HLA-A*31:01; assay: as above
[13] = target: HLA-A*01:01; assay: as above
[14] = target: HLA-B*27:05; assay: as above
[15] = target: HLA-B*18:01; assay: as above
[16] = target: HLA-A*11:01; assay: as above
[17] = target: HLA-A*03:01; assay: as above
[18] = target: HLA-B*08:02; assay: as above; conditions: source organism: Vibrio parahaemolyticus RIMD 2210633
[19] = target: HLA-A*26:01; assay: as above
[20] = target: HLA-A*69:01; assay: as above
[21] = target: HLA-B*08:01; assay: IEDB peptide-MHC binding, purified MHC/competitive/fluorescence; filed as Kd, often an IC50 or EC50 that approximates it; ≥ and ≤ were set here for values at or beyond the usual limits of such assays
[22] = target: HLA-A*02:12; assay: IEDB peptide-MHC binding, purified MHC/direct/fluorescence; filed as Kd, often an IC50 or EC50 that approximates it; ≥ and ≤ were set here for values at or beyond the usual limits of such assays; conditions: source organism: Zaire ebolavirus
[23] = target: HLA-A*02:03; assay: as above; conditions: source organism: Zaire ebolavirus
[24] = target: HLA-A*02:11; assay: as above; conditions: source organism: Zaire ebolavirus
[25] = target: HLA-A*02:16; assay: as above; conditions: source organism: Zaire ebolavirus
[26] = target: HLA-A*02:19; assay: as above; conditions: source organism: Zaire ebolavirus
[27] = target: HLA-A*68:02; assay: as above; conditions: source organism: Zaire ebolavirus
[28] = target: HLA-A*02:01; assay: IEDB peptide-MHC binding, purified MHC/competitive/fluorescence; filed as Kd, often an IC50 or EC50 that approximates it; ≥ and ≤ were set here for values at or beyond the usual limits of such assays; conditions: source organism: Zaire ebolavirus
[29] = target: HLA-B*39:01; assay: as above; conditions: source organism: Zaire ebolavirus
[30] = target: HLA-B*46:01; assay: as above; conditions: source organism: Zaire ebolavirus
[31] = target: HLA-B*27:03; assay: as above; conditions: source organism: Zaire ebolavirus
[32] = target: HLA-B*58:01; assay: as above
[33] = target: HLA-B*51:01; assay: as above
[34] = target: HLA-B*18:01; assay: as above
[35] = target: HLA-B*15:01; assay: as above
[36] = target: HLA-A*69:01; assay: as above; conditions: source organism: Zaire ebolavirus
[37] = target: HLA-A*01:01; assay: as above; conditions: source organism: Salmonella enterica subsp. enterica serovar Typhi
[38] = target: HLA-B*48:01; assay: IEDB peptide-MHC binding, purified MHC/direct/fluorescence; filed as Kd, often an IC50 or EC50 that approximates it; ≥ and ≤ were set here for values at or beyond the usual limits of such assays; conditions: source organism: Camelpox virus M-96
[39] = target: HLA-B*57:01; assay: as above; conditions: source organism: Camelpox virus M-96
[40] = target: HLA-B*15:17; assay: IEDB peptide-MHC binding, purified MHC/competitive/fluorescence; filed as Kd, often an IC50 or EC50 that approximates it; ≥ and ≤ were set here for values at or beyond the usual limits of such assays; conditions: source organism: Vaccinia virus WR
[41] = target: HLA-A*02:06; assay: as above; conditions: source organism: Vaccinia virus WR
[42] = target: HLA-A*31:01; assay: as above; conditions: source organism: Vaccinia virus WR
[43] = target: HLA-A*68:02; assay: as above; conditions: source organism: Vaccinia virus WR
[44] = target: HLA-A*30:01; assay: as above; conditions: source organism: Vaccinia virus WR
[45] = source organism: Yersinia pestis Nepal516
[46] = source organism: Vibrio parahaemolyticus
[47] = source organism: Zaire ebolavirus
[48] = source organism: Salmonella enterica subsp. enterica serovar Typhi
[49] = source organism: Shigella flexneri 5 str. 8401
[50] = source organism: Yersinia pestis Antiqua
[51] = source organism: Camelpox virus M-96
[52] = source organism: Vaccinia virus WR
[53] = source organism: Bacillus anthracis str. A2012

In the case of LMLADHPEY, the Kd ([1]; source organism: Mycobacterium tuberculosis) is reported as 0.313 µM and the Kd ([2]; source organism: Mycobacterium tuberculosis C) is reported as 0.0186 µM.
In the case of VVNDFTVSY, the Kd [2, 45] is reported as 0.0035 µM, the Kd [3, 45] is reported as 0.122 µM and the Kd [4, 45] is reported as 0.225 µM.
With ALSMGINTV the Kd [5, 46] was 0.0356 µM, the Kd [6, 46] was ≥ 20 µM and the Kd [7] was ≥ 20 µM. For the same sequence, the Kd [8, 46] was ≥ 20 µM, the Kd [9, 46] was ≥ 20 µM and the Kd [10] was ≥ 20 µM. The Kd [11, 46] was ≥ 20 µM, the Kd [12, 46] was ≥ 20 µM and the Kd [13, 46] was ≥ 20 µM. For the same sequence, the Kd [14, 46] was ≥ 20 µM, the Kd [15, 46] was ≥ 20 µM and the Kd [16, 46] was ≥ 20 µM. The Kd [17, 46] was ≥ 20 µM, the Kd [18] was ≥ 20 µM and the Kd ([19]; source organism: Vibrio parahaemolyticus RIMD 2210633) was ≥ 20 µM. For the same sequence, the Kd [1, 46] was ≥ 20 µM, the Kd [20, 46] was 2 µM and the Kd ([21]; source organism: Vibrio parahaemolyticus K5030) was ≥ 20 µM.
For VLMKQIPIW, the Kd [22] was ≥ 20 µM, the Kd [23] was ≥ 20 µM and the Kd [24] was ≥ 20 µM. For the same sequence, the Kd [25] was ≥ 20 µM, the Kd [26] was ≥ 20 µM and the Kd [27] was ≥ 20 µM. For the same sequence, the Kd [17, 47] was ≥ 20 µM, the Kd [28] was ≥ 20 µM and the Kd [29] was ≥ 20 µM. For the same sequence, the Kd [30] was ≥ 20 µM, the Kd [31] was ≥ 20 µM and the Kd [32, 47] was 0.0013 µM. The Kd [33, 47] was ≥ 20 µM, the Kd [34, 47] was ≥ 20 µM and the Kd [4, 47] was ≥ 20 µM. The Kd [35, 47] was ≥ 20 µM and the Kd [36] was ≥ 20 µM.
With VTIGNAYIY the Kd [32, 48] was 0.0625 µM, the Kd [37] was 3.5 µM and the Kd [3, 48] was ≥ 20 µM. The Kd [4, 48] was 1.05 µM.
For MFAAGLILY, the Kd [2, 49] was 1.06 µM, the Kd [3, 49] was ≥ 20 µM and the Kd [35, 49] was ≥ 20 µM.
EAKLFFQVI was tested, and the Kd [33, 50] was 0.726 µM and the Kd [21, 50] was 0.755 µM.
For LTFLHTLYK, the Kd [5, 51] was ≥ 20 µM, the Kd [6, 51] was ≥ 20 µM and the Kd [8, 51] was ≥ 20 µM. The Kd [9, 51] was ≥ 20 µM, the Kd [38] was ≥ 20 µM and the Kd [11, 51] was ≥ 20 µM. For the same sequence, the Kd [13, 51] was ≥ 20 µM, the Kd [14, 51] was ≥ 20 µM and the Kd [15, 51] was ≥ 20 µM. For the same sequence, the Kd [16, 51] was 0.104 µM, the Kd [17, 51] was 0.16 µM and the Kd [39] was ≥ 20 µM. The Kd [1, 51] was ≥ 20 µM, the Kd [20, 51] was ≥ 20 µM and the Kd [40] was 0.226 µM. The Kd [41] was 1.09 µM, the Kd [42] was 0.224 µM and the Kd [43] was 1.09 µM.
With FVHTLLKTY the Kd [5, 51] was ≥ 20 µM, the Kd [8, 51] was ≥ 20 µM and the Kd [38] was ≥ 20 µM. For the same sequence, the Kd [11, 51] was ≥ 20 µM, the Kd [12, 51] was ≥ 20 µM and the Kd [13, 51] was ≥ 20 µM. The Kd [14, 51] was ≥ 20 µM, the Kd [16, 51] was ≥ 20 µM and the Kd [17, 51] was ≥ 20 µM. For the same sequence, the Kd [39] was ≥ 20 µM, the Kd [19, 51] was 0.0733 µM and the Kd [20, 51] was ≥ 20 µM. For the same sequence, the Kd [40] was 0.0554 µM, the Kd [44] was ≥ 20 µM and the Kd [41] was 2.97 µM. The Kd [34, 52] was ≥ 20 µM and the Kd [35, 52] was 0.308 µM.
With MGMNAYFAY the Kd [2, 53] was ≤ 0.0001 µM and the Kd [35, 53] was 0.0612 µM.
VSFLISWSL was tested, and the Kd [32, 53] was 2.61 µM.
